Source: the supplement of paper PMC7877785
± gives the uncertainty stated by the source.

Experiment: self-splicing fitness, log relative to wild type (ln ratio); higher = more splicing; Tetrahymena group I intron in knt gene, E. coli kanamycin selection, DiMSum; sequences stand for … in CUCUCU…GGAGGGAAAAGUUAUCAGGCAUGCACCUGGUAGCUAGUCUUUAAACCAAUAGAUUGCAUCGGUUUAAAAGGCAAGACCGUCAAAUUGCGGGAAAGGGGUCAACAGCCGUUCAGUACCAAGUCUCAGGGGAAACUUUGAGAUGGCCUUGCAAAGGGUAUGGUAAUAAGCUGACGGACAUGGUCCUAACCACGCAGCCAAGUCCUAAGUCAACAGAUCUUCUGUUGAUAUGGAUGCAGUUCACAGACUAAAUGUCGGUCGGGGAAGAUGUAUUCUUCUCAUAAGAUAUAGUCGGACCUCUCCUUAAUGGGAGCUAGCGGAUGAAGUGAUGCAACACUGGAGCCGCUGGGAACUAAUUUGUAUGCGAAAGUAUAUUGAUUAGUUUUGGAGUACUCGUGGUCG
In short: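 DiMSum derived fitness as the error-weighted combination of fold changes across replicates, kanamycin versus no kanamycin, normalised to wild type. E. coli BL21(DE3) held the library, which randomised all eight P1ex-region intron nucleotides within the knt kanamycin-resistance gene on pET-22b(+). Six replicate transformations grew overnight at 37°C or 30°C on LB agar with or without 25 μg/mL kanamycin, also containing 100 μg/mL carbenicillin, 50 μM IPTG and 0.2% rhamnose, and pooled colonies were amplicon-sequenced on an Illumina HiSeq 2500.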

Sequence | self-splicing fitness (ln) (30 °C) | self-splicing fitness (ln) (37 °C)
CCUCAGCAAUAUUACGCCCA | -3.18 ± 0.22 | -3.5 ± 0.39
GCACAGCAAUAUUACGGGCC |  | -1.7 ± 0.21
UUCAAGCAAUAUUACGAAAA | -0.341 ± 0.15 | -0.222 ± 0.18
UCGAAGCAAUAUUACGUCUG | -0.0903 ± 0.069 | -0.194 ± 0.077
AGUAAGCAAUAUUACGGAAC | -1.82 ± 0.25 | -2.6 ± 0.27
GUCAAGCAAUAUUACGUUUC | -2.79 ± 0.13 | -2.39 ± 0.16
UAACAGCAAUAUUACGGUUU | -1.14 ± 0.05 | -0.621 ± 0.063
GCUUAGCAAUAUUACGACAA | -1.02 ± 0.14 | -0.462 ± 0.19
GGGCAGCAAUAUUACGACAC | -0.731 ± 0.26 | 0.302 ± 0.27
GAUCAGCAAUAUUACGAUCG | -1.17 ± 0.096 | 0.0523 ± 0.13
UCAUAGCAAUAUUACGACGC | -1.6 ± 0.19 | -0.696 ± 0.21
AGUGAGCAAUAUUACGCUCC | -1.69 ± 0.45 | 
AAUAAGCAAUAUUACGAUCA | -0.507 ± 0.12 | 0.576 ± 0.13
CAUUAGCAAUAUUACGGGGU | -3.26 ± 0.17 | -2.25 ± 0.17
UAGUAGCAAUAUUACGCACG | -0.964 ± 0.15 | -0.244 ± 0.21
GGCCAGCAAUAUUACGUAUC | -0.633 ± 0.069 | -0.494 ± 0.081
UCACAGCAAUAUUACGGCAA | -1.38 ± 0.1 | -1.42 ± 0.097
GCCGAGCAAUAUUACGGAUA | -1.68 ± 0.14 | -0.192 ± 0.13
CGGUAGCAAUAUUACGCAAA |  | -1.6 ± 0.42
CCCAAGCAAUAUUACGGCCU | -3.6 ± 0.35 | -3.09 ± 0.37
CGGGAGCAAUAUUACGGGGC |  | -2.14 ± 0.43
GUUUAGCAAUAUUACGGUCA | -1.26 ± 0.19 | -0.326 ± 0.16
CGGCAGCAAUAUUACGUCCU | 0.101 ± 0.067 | 0.44 ± 0.092
GCUUAGCAAUAUUACGCAUC | -1.04 ± 0.069 | -0.56 ± 0.091
GAUUAGCAAUAUUACGAAUU | -2.56 ± 0.3 | -2.95 ± 0.47

Sequence | self-splicing fitness (ln) (30 °C) | self-splicing fitness (ln) (37 °C)
GUCCAGCAAUAUUACGAUAA | -1.3 ± 0.087 | -0.506 ± 0.11
GCCGAGCAAUAUUACGUCCC | -0.316 ± 0.14 | -0.826 ± 0.22
CGGGAGCAAUAUUACGAUAG |  | -1.97 ± 0.37
AGUUAGCAAUAUUACGUCCA | -0.989 ± 0.16 | -0.0648 ± 0.18
AUCGAGCAAUAUUACGAGUA | -3.25 ± 0.41 | -1.58 ± 0.28
UACUAGCAAUAUUACGUCCG | -0.327 ± 0.12 | 0.11 ± 0.14
CAGAAGCAAUAUUACGCCAC |  | -0.904 ± 0.4
UCUGAGCAAUAUUACGGGAC | -2.86 ± 0.4 | -2.37 ± 0.23
UAGGAGCAAUAUUACGAUUC | -2.08 ± 0.37 | 
CGUCAGCAAUAUUACGUAUA |  | -0.724 ± 0.16
ACCCAGCAAUAUUACGACCU | -0.748 ± 0.062 | -0.326 ± 0.074
GCGUAGCAAUAUUACGACCU | -0.0292 ± 0.22 | -0.575 ± 0.34
GGACAGCAAUAUUACGGAUU | -1.33 ± 0.066 | 0.0211 ± 0.089
AGGCAGCAAUAUUACGUAGU | -3.18 ± 0.12 | -1.75 ± 0.11
CGUUAGCAAUAUUACGGUGA | -2.76 ± 0.21 | -0.883 ± 0.16
CCCAAGCAAUAUUACGGCGU | -3.85 ± 0.19 | -2.4 ± 0.13
ACGGAGCAAUAUUACGUGGA | -3.74 ± 0.37 | -2.26 ± 0.24
GUGCAGCAAUAUUACGCAAU | -1.75 ± 0.085 | -1.37 ± 0.12
GUUCAGCAAUAUUACGAUUG | -0.497 ± 0.093 | -0.904 ± 0.15
ACCGAGCAAUAUUACGCGUA | -2.38 ± 0.14 | -0.999 ± 0.12
UUACAGCAAUAUUACGUAAG | -0.248 ± 0.068 | -0.257 ± 0.097
CAAAAGCAAUAUUACGCAAU | -4.03 ± 0.3 | -1.93 ± 0.24
UGACAGCAAUAUUACGUCCA | -0.629 ± 0.061 | 0.245 ± 0.1
GGACAGCAAUAUUACGAUAU | -1.67 ± 0.08 | -0.201 ± 0.086
CAAAAGCAAUAUUACGUGUC | -3.51 ± 0.14 | -1.41 ± 0.12

Sequence | self-splicing fitness (ln) (30 °C) | self-splicing fitness (ln) (37 °C)
GUGCAGCAAUAUUACGAGUG | -2.2 ± 0.15 | -2.11 ± 0.17
CAAGAGCAAUAUUACGAGCU | -2.04 ± 0.28 | -2.06 ± 0.37
AGUUAGCAAUAUUACGGAGA | -1.99 ± 0.27 | -2.86 ± 0.48
CCGAAGCAAUAUUACGCACC | -2.46 ± 0.19 | -2.25 ± 0.5
CGUAAGCAAUAUUACGCUUU | -3.21 ± 0.23 | -2.31 ± 0.2
GCUCAGCAAUAUUACGCGGA | -2.01 ± 0.26 | -2.63 ± 0.28
UCCCAGCAAUAUUACGGACA | -1.63 ± 0.092 | -0.126 ± 0.081
CUGCAGCAAUAUUACGCCUU | -2.87 ± 0.15 | -2.94 ± 0.29
GUCCAGCAAUAUUACGUAAG | -0.607 ± 0.071 | -0.277 ± 0.11
CGGAAGCAAUAUUACGGCAC | -2.4 ± 0.25 | -1.75 ± 0.38
GAGAAGCAAUAUUACGCGAC | -2.78 ± 0.17 | -1.38 ± 0.15
CUCAAGCAAUAUUACGAUGA | -1.31 ± 0.11 | -2.07 ± 0.16
AGUGAGCAAUAUUACGUUCA | -3.1 ± 0.38 | -2.41 ± 0.37
CCACAGCAAUAUUACGAUUG | -1.3 ± 0.05 | -0.453 ± 0.067
UAAAAGCAAUAUUACGCGCU | -1.22 ± 0.14 | 0.0478 ± 0.17
UCUAAGCAAUAUUACGCCAG | -1.18 ± 0.12 | -0.166 ± 0.16
ACCCAGCAAUAUUACGUUCU | -1.31 ± 0.062 | -1 ± 0.071
GCUCAGCAAUAUUACGAUCU | -0.418 ± 0.094 | -0.185 ± 0.099
GACAAGCAAUAUUACGCGCU | -1.29 ± 0.058 | -0.594 ± 0.073
AGAUAGCAAUAUUACGGCUU | -0.346 ± 0.11 | -0.141 ± 0.097
GGAAAGCAAUAUUACGGCCG | -0.751 ± 0.12 | -0.566 ± 0.16
GCCUAGCAAUAUUACGAAAA | -3.05 ± 0.33 | -1.04 ± 0.26
AGUGAGCAAUAUUACGUGGC |  | -1.94 ± 0.33
UGUUAGCAAUAUUACGGAGU |  | -2.73 ± 0.27
UCAGAGCAAUAUUACGCUAG | -2.4 ± 0.12 | -2.95 ± 0.28

Sequence | self-splicing fitness (ln) (30 °C) | self-splicing fitness (ln) (37 °C)
UUUCAGCAAUAUUACGCUAU | -2.73 ± 0.17 | -1.81 ± 0.14
ACCAAGCAAUAUUACGCUGC | -1.62 ± 0.063 | -0.906 ± 0.076
CGAUAGCAAUAUUACGAAGG | -0.374 ± 0.11 | -0.55 ± 0.17
AGCUAGCAAUAUUACGGCAC | -1.75 ± 0.14 | -0.45 ± 0.16
AGAAAGCAAUAUUACGCAGU | -2.5 ± 0.16 | -2.07 ± 0.2
AAAAAGCAAUAUUACGGUAC | -3.24 ± 0.11 | -1.76 ± 0.094
CGAAAGCAAUAUUACGUACU | -0.756 ± 0.078 | 0.23 ± 0.098
UAGUAGCAAUAUUACGGACG | -2.09 ± 0.12 | -0.623 ± 0.13
ACAAAGCAAUAUUACGCGAU | -2.75 ± 0.14 | -2.22 ± 0.16
UACUAGCAAUAUUACGGAAU | -4.58 ± 0.39 | -2.95 ± 0.23
GGACAGCAAUAUUACGCUCA | -0.215 ± 0.12 | -0.136 ± 0.15
CUUCAGCAAUAUUACGCAAU | -4.04 ± 0.37 | -2.04 ± 0.3
GGUAAGCAAUAUUACGCUAC | -2.3 ± 0.4 | -2.23 ± 0.37
UCUAAGCAAUAUUACGUGCG | -0.493 ± 0.1 | -0.581 ± 0.15
ACAAAGCAAUAUUACGACGG | -1.06 ± 0.07 | -0.665 ± 0.093
ACCAAGCAAUAUUACGUGGU | -3.41 ± 0.1 | -2.69 ± 0.13
UCGCAGCAAUAUUACGUAAG | -1.4 ± 0.099 | -1.12 ± 0.11
GCUGAGCAAUAUUACGGAGC | -3.49 ± 0.18 | -1.7 ± 0.16
ACUCAGCAAUAUUACGCCAG | -0.898 ± 0.087 | -1.27 ± 0.15
CCGAAGCAAUAUUACGCUCC | -2.86 ± 0.44 | 
UUAUAGCAAUAUUACGCGCC | -1.96 ± 0.23 | -2.14 ± 0.3
AUGCAGCAAUAUUACGAACA | -0.00786 ± 0.13 | 0.392 ± 0.16
GGGAAGCAAUAUUACGGACG | -0.846 ± 0.11 | -0.443 ± 0.13
CGGUAGCAAUAUUACGGGCC | -3.47 ± 0.36 | 
